Test system: Bacillus subtilis
Experiment: cleaved RNA product abundance (RNA/gDNA barcode ratio) relative to median wild-type variant (ratio to wild type); higher = more accumulation of the downstream cleavage product
In short: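 Oligos with a 9% error rate were used to build barcoded, mutagenized RNase Y cleavage-site windows within truncated aprE or tetM reporter mRNAs, which were integrated into the B. subtilis chromosome. Cultures were grown in LB at 37°C between OD600 0.0003 and 0.3. Cleaved RNA was gel-selected, reverse transcribed and barcode-sequenced, as were genomic DNA barcodes, and UMIs were collapsed. Cleaved product abundance is the scaled RNA:gDNA barcode ratio, with the median construct carrying the unmutated site as reference.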

[1] = experiment (reporter, strain, medium): exp 2b: truncated aprE reporter, strain BJT200, cleavage site: cggR-gapA (positions -7 to +36 mutated)
[2] = experiment (reporter, strain, medium): exp 4a: truncated aprE reporter, strain BJT201 with 2% xylose (RNase J1 expressed), cleavage site: cggR-gapA (positions -7 to +36 mutated)
[3] = experiment (reporter, strain, medium): exp 8a: truncated aprE reporter, strain BJT201 with 2% xylose (RNase J1 expressed), cleavage site: glnRA (positions -5 to +31 mutated)

ACAGACGAAGGAGCCGCAAAGAAGTTATTAAGGGATGAATAATCCCTCAACAAAAATATCTCTCACTTATTTAAA
cleaved RNA product abundance [1]: 0.105

ACAGACGAAGGAGCCGCAAAGAAGATATTAAGGGAAGAATAATCCCTCAATATAAATATCTCTCACTTATTTAAA
cleaved RNA product abundance [2]: 1

ACAGACGAAGGAGCCGCAAAGAAGTTATTAAGGGATGAATAATCCCTCAATATAAATATCTCTCACTTATTTAAG
cleaved RNA product abundance [1]: 0.868
cleaved RNA product abundance [2]: 0.646

ACAGACGAAGGAGCCGCAAAGAAGTTATTAAGGAATGAACAATCCCTCAATATAAATATCTCTCACTTATTTAAA
cleaved RNA product abundance [1]: 0.0794
cleaved RNA product abundance [2]: 0.124

ACAGACGAAGGAGCCGCAAAGAAGTTATTAAGGGATGAATAATCCTTCAATATAAATATCTCTCACTTATTTAAG
cleaved RNA product abundance [2]: 0.558

CGACATGTCCCGCTTCTTTCATTATTCCGTTAGCAACTGTTTTGCTAAATACATTTACCTTTTAAGAGGAGGAAT
cleaved RNA product abundance [3]: 0.93

CGACATGTCCCGCTTCTTTCATTAATCCGTTATCAACTGTTTTAATATATACATTTACCTTTTAAGAGGAGGAAT
cleaved RNA product abundance [3]: 0.415

ACAGACGAAGGAGCCGCAAAGAAGTTATTAAGGGATCAATAATGCCTCAATATAAATATCTCTCACTTATTTAAA
cleaved RNA product abundance [1]: 0.0953
cleaved RNA product abundance [2]: 0.138

ACAGACGAAGGAGCCGCAAAGAAGTTATTAAGGGATGAATAATCACTCAAAATAAATATCTCTCACTTATTTAAA
cleaved RNA product abundance [1]: 0.0846
cleaved RNA product abundance [2]: 0.122

ACAGACGAAGGAGCCGCAAAGAAGTTATTAAGGGATGAATAATCCCTCAATATAAATATCTCTCATTATTTAAAG
cleaved RNA product abundance [1]: 1.06
cleaved RNA product abundance [2]: 1.05

ACAGACGAAGGAGCCGCAAAGAATTTATTAAGGGTTGAATAATCCCTCAATATAAATATCTCTCACTTATTTAAA
cleaved RNA product abundance [2]: 0.388

ACAGACGAAGGAGCCGCAAAGGAGTTATTAAGGGAAGAATAATCCCTCAATATAAATATCTCTCACTTATTTAAA
cleaved RNA product abundance [1]: 0.495

ACAGACGAAGGAGCCGCAAAGATGTTATTAAGGGATGAATAATCCCTCAATATACATATCTCTCACTTATTTAAA
cleaved RNA product abundance [2]: 0.483

ACAGACGAAGGAGCCGCAAATAAGTTATTAAGGGATGAATAATCCCTCAATATAAATAACTCTCACTTATTTAAA
cleaved RNA product abundance [2]: 0.44

CGACATGTCCCGCTTCTTTCATTAATCCGATAGCAACTGTTTTTCTATATACATTTACCTTTTAAGAGGAGGAAT
cleaved RNA product abundance [3]: 0.413

CGACATGTCCCGCTTCTTTCATTAATCCGTTAACAACTGTTTTGTTATATACATTTACCTTTTAAGAGGAGGAAT
cleaved RNA product abundance [3]: 0.271

CGACATGTCCCGCTTCTTTCATTAATCGGTTAGCAACTGTTTTGATATATACATTTACCTTTTAAGAGGAGGAAT
cleaved RNA product abundance [3]: 0.356

ACAGACGAAGGAGCCGCAAAGAAGTTATTAATGGCTGAATAATCCCTCAATATAAATATCTCTCACTTATTTAAA
cleaved RNA product abundance [1]: 0.11
cleaved RNA product abundance [2]: 0.0644

ACAGACGAAGGAGCCGCAAAGAAGTTATTAAGGGATGAATAATCCATCAATTTAAATATCTCTCACTTATTTAAA
cleaved RNA product abundance [2]: 0.13

CGACATGTCCCGCTTCTTTCATTAATCCATTAGCAACTGTTTCGCTATATACATTTACCTTTTAAGAGGAGGAAT
cleaved RNA product abundance [3]: 0.271

CGACATGTCCCGCTTCTTTCATTAATCCGTTAGCAACTGTTTGCTATATACATTTACCTTTTAAGAGGAGGAATT
cleaved RNA product abundance [3]: 1.42

ACAGACGAAGGAGCCGCAAAGAAGTTAATAAGGGATGAATAAGCCCTCAATATAAATATCTCTCACTTATTTAAA
cleaved RNA product abundance [2]: 0.197

ACAGACGAAGGAGCCGCATAGAAGTTATTAAGGGATGAAGAATCCCTCAATATAAATATCTCTCACTTATTTAAA
cleaved RNA product abundance [2]: 0.861

ACAGACGAAGGAGCCGCAAGGAAGCTATTAAGGGATGAATAATCCCTCAATATAAATATCTCTCACTTATTTAAA
cleaved RNA product abundance [1]: 0.644

ACAGACGAAGGAGCCGCAAAGAAGTTATCAAGGAATGAATAATCCCTCAATATAAATATCTCTCACTTATTTAAA
cleaved RNA product abundance [2]: 0.11

ACAGACGAAGGAGCCGCAAACAAGTTATTAAAGGATGAATAATCCCTCAATATAAATATCTCTCACTTATTTAAA
cleaved RNA product abundance [1]: 0.121
cleaved RNA product abundance [2]: 0.116

CGACATGTCCCGCTTCTTTCATTAATCTGTTAGCAACTGTTTTGCTATATACAGTTACCTTTTAAGAGGAGGAAT
cleaved RNA product abundance [3]: 0.249

ACAGACGAAGGAGCCGCAACGAAGTTATTAAGGTATGAATAATCCCTCAATATAAATATCTCTCACTTATTTAAA
cleaved RNA product abundance [2]: 0.0862

ACAGACGAAGGAGCCGCAAAGAAGTTATTAAGGGATGACTAAACCCTCAATATAAATATCTCTCACTTATTTAAA
cleaved RNA product abundance [1]: 0.197
cleaved RNA product abundance [2]: 0.303

ACAGACGAAGGAGCCGCAAAGAAGTTATTAAGGGAGGAATAATCCCTCAAAATAAATATCTCTCACTTATTTAAA
cleaved RNA product abundance [2]: 0.284

CGACATGTCCCGCTTCTTTCATTAATCCGTTAGCAATTGTTTTGCTATATGCATTTACCTTTTAAGAGGAGGAAT
cleaved RNA product abundance [3]: 0.232

ACAGACGAAGGAGCCGCAAAGAAGTTATTAAGGGATTGATAATCCCTCAATATAAATATCTCTCACTTATTTAAA
cleaved RNA product abundance [2]: 0.889

CGACATGTCCCGCTTCTTTCATTAATCCGTTATCAACTGTTTTTCTATATACATTTACCTTTTAAGAGGAGGAAT
cleaved RNA product abundance [3]: 0.393

CGACATGTCCCGCTTCTTTCATTAATCCGTTAGCAACAGTTTTGCTATATATATTTACCTTTTAAGAGGAGGAAT
cleaved RNA product abundance [3]: 0.588

ACAGACGAAGGAGCCGCAAAAAAATTATTAAGGGATGAATAATCCCTCAATATAAATATCTCTCACTTATTTAAA
cleaved RNA product abundance [1]: 1.1
cleaved RNA product abundance [2]: 1.04

ACAGACGAAGGAGCCGCAAAGAAGTTATTAAGGTATGAATAATCCCTCAATATAAATTTCTCTCACTTATTTAAA
cleaved RNA product abundance [2]: 0.17

ACAGACGAAGGAGCCGCAAAGAAGTTATTAATGGATGAATAATCGCTCAATATAAATATCTCTCACTTATTTAAA
cleaved RNA product abundance [1]: 0.077

CGACATGTCCCGCTTCTTTCATTAATCCGTTAGCAACTGTTTGGCTATATACATTTACATTTTAAGAGGAGGAAT
cleaved RNA product abundance [3]: 0.339

ACAGACGAAGGAGCCGAATAGAAGTTATTAAGGGATGAATAATCCCTCAATATAAATATCTCTCACTTATTTAAA
cleaved RNA product abundance (experiment (reporter, strain, medium): exp 6: tetM reporter, strain 168, cleavage site: cggR-gapA (positions -7 to +36 mutated)): 0.727

ACAGACGAAGGAGCCGCAAAGAACTTATAAAGGGACGAATAATCCCTCAATATAAATATCTCTCACTTATTTAAA
cleaved RNA product abundance [2]: 0.162

ACAGACGAAGGAGCCGCAAAGAAGTTATTAAGGGATGAATAATAACTCAATATAAATATCTCTCACTTATTTAAA
cleaved RNA product abundance [1]: 0.0902
cleaved RNA product abundance [2]: 0.128

ACAGACGAAGGAGCCGCAAAGAAGTTATTAAGGGATGAATAAACCCTCAATATAATTATCTCTCACTTATTTAAA
cleaved RNA product abundance [1]: 0.293
cleaved RNA product abundance [2]: 0.33

ACAGACGAAGGAGCCGCAAAGAAGTTATTAAGGGATCAACAATCCCTCAATATAAATATCTCTCACTTATTTAAA
cleaved RNA product abundance [1]: 1
cleaved RNA product abundance [2]: 0.962

ACAGACGAAGGAGCCGCAAAGAAGTTATTAACGGATGAATACTCCCTCAATATAAATATCTCTCACTTATTTAAA
cleaved RNA product abundance [2]: 0.133

ACAGACGAAGGAGCCGCAAAGAAGTTATTAAGGGATGAATAATCCATCAATATAAATAACTCTCACTTATTTAAA
cleaved RNA product abundance [2]: 0.185

ACAGACGAAGGAGCCGCAAAGAAGTTATTATGGGATGAATACTCCCTCAATATAAATATCTCTCACTTATTTAAA
cleaved RNA product abundance [2]: 0.212

ACAGACGAAGGAGCCGCAAAGAAGTTAATAAGGGATGAATAATCCCTCAATATAAATACCTCTCACTTATTTAAA
cleaved RNA product abundance [2]: 0.201

ACAGACGAAGGAGCCGCAAAGAAGTTATGAAGGGATGAATAATCCCTAAATATAAATATCTCTCACTTATTTAAA
cleaved RNA product abundance [1]: 0.38
cleaved RNA product abundance [2]: 0.711

ACAGACGAAGGAGCCGCAAAGAAGTTATTAAGGGATTATTAATCCCTCAATATAAATATCTCTCACTTATTTAAA
cleaved RNA product abundance [1]: 0.957
cleaved RNA product abundance [2]: 1.09

ACAGACGAAGGAGCCGCAAAGAAGTTATTACGGGATGAAAAATCCCTCAATATAAATATCTCTCACTTATTTAAA
cleaved RNA product abundance [1]: 0.223
cleaved RNA product abundance [2]: 0.321

ACAGACGAAGGAGCCGCAAAGAAGTTACTAAGGGATGGATAATCCCTCAATATAAATATCTCTCACTTATTTAAA
cleaved RNA product abundance [2]: 0.208

ACAGACGAAGGAGCCGCAAATACGTTATTAAGGGATGAATAAACCCTCAATATAAATATCTCTCACTTATTTAAA
cleaved RNA product abundance [2]: 0.383

CGACATGTCCCGCTTCTTTCATTAATCCGTTAACAACTGTTTTGCAATATACATTTACCTTTTAAGAGGAGGAAT
cleaved RNA product abundance [3]: 0.185

ACAGACGAAGGAGCCGCAAAGAAGTTATTAAGGGATGAACAATCGCTCAATATAAATATCTCTCACTTATTTAAA
cleaved RNA product abundance [2]: 0.104

CGACATGTCCCGCTTCTTTCATTAATCCGTTATCAACTGTTTGGCTATATACATTTACCTTTTAAGAGGAGGAAT
cleaved RNA product abundance [3]: 0.231

CGACATGTCCCGCTTCTTTCATTAATCCTTTAGCAACTGTTTTGCTATATACATTGACCTTTTAAGAGGAGGAAT
cleaved RNA product abundance [3]: 0.333

ACAGACGAAGGAGCCGCAAAGAAGTTATTAAGGGACGAATAATCCGTCAATATAAATATCTCTCACTTATTTAAA
cleaved RNA product abundance [1]: 0.0596
cleaved RNA product abundance [2]: 0.072

ACAGACGAAGGAGCCGCAAAGAAGTTATTAAAGGATGAATAATCCCTCAATATTAATATCTCTCACTTATTTAAA
cleaved RNA product abundance [2]: 0.0494

ACAGACGAAGGAGCCGCAAAGAAGTTTTTAAGGGATGAATAATCCGTCAATATAAATATCTCTCACTTATTTAAA
cleaved RNA product abundance [1]: 0.133
cleaved RNA product abundance [2]: 0.321

CGACATGTCCCGCTTCTTTCATTAATCCGTAAGCAACTGTTTTGCTATATAAATTTACCTTTTAAGAGGAGGAAT
cleaved RNA product abundance [3]: 0.474

From the supplement of paper PMC11780869
